According to the supplement of paper PMC10567573:

B1: CDC25A (parent)
chain: KPIVPTDGKRVIVVFHCEFSSERG

Variants of: B1
Assay: protein stability index of a GFP-peptide fusion (GPS, HEK-293T) (PSI 1-6); higher = more stable
Conditions: c terminus: a fixed tail appended
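Note: lentivirally expressed fusions sorted by FACS into six bins by GFP to DsRed ratio, PSI derived from sequencing read proportions per bin multiplied by bin number.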

Protein stability index, by site and new letter:
F15: S 3.47; I 2.73; R 3.06; L 3.28; W 1.55; E 4.32; D 4.34; Y 1.72; P 4.14; C 1.68; Q 3.78; V 2.84; H 3.19; M 1.61; K 3.79
G8: P 1.52; T 2.3; F 2.28; K 1.82; A 2.26; I 2.89; M 3.53; H 3.19; Y 2.16; C 1.88; E 2.13; L 3.42; D 1.33; V 5.1; W 2.51; R 2.3; Q 1.51; N 1.95
K9: R 2.92; S 2.4; D 2.19; P 1.94; M 2.36; N 2.31; W 2.4; E 2.58; V 2.77; C 2.67; Q 3.32; A 1.56; T 2.66; H 2.19; L 2.69; G 2.86; F 2.2
D7: Q 2.76; R 2; T 3.31; N 2.48; W 4.57; S 1.84; H 3.21; E 2.8; F 2.17; A 2.21; M 2.53; P 3.14; L 3.2; V 2.3; K 1.8
V4: C 2.14; Y 2.58; G 2.33; I 2.57; L 2.33; W 2.32; D 2.51; E 1.48; R 3.53; T 1.42; P 2.75; H 2.17; K 2.11; N 3.39; M 1.92; Q 2.44; S 2.49; F 2.24; A 2.12
